Test results as given in patent US11781164B2, “Demethylation of reticuline and derivatives thereof with fungal cytochrome P450” (priority 2017, dated 2023).

B1: CYPDN8: cytochrome P450 homolog A0A0C7AZL4 from Rhizopus microsporus, codon-optimized (protein, listed as Rhizopus microsporus)
chain: MDHLIQVYNSSTQVLIPVLQKRSKASYITAAIALIIAQRLYSYFRVPKHLRGFPKLPYFGIAKSFFAKESPRERVKKYILPIINERDGFYISNIPFGWMLYVTNPIAAKQILLKSNGFPKNHGLLEDMGENLFIEFIGKDNVVLTNGDTWKRQRKVMNPAFHHSLPIKTMSNVVFSLISVIDQANGTVPVASTMQNFTLDTLGLAIFGFDFKALQGDGDEWTKTYRLVSDCLFDPIINVFSSYSFIFDRIYPRRRRGAMATRKLGEKFLEIAQQKRMEIKSGAFADVPDNEKDLLTLMLEAEEKGDVWTSEDELRHNIAVLFLAGHDTTAHALSFCFYHLAKNKDIQQKLRKEVLDLLGDEPVDVVPTVEQLKDMQYLNMVIKENLRMNSPADMLFSRDVQEDIVLANTFIPKGTVISINIEALHCNPKLWHNPDQFDPERFAPGGEHEQHEGMTWLPFSNGTRQCLGMNFSLFEQRLVIAMILKKYEISIPEDSIHRNHIINDMPFNVAPKSLELTFTKRY
modifications: codon-optimized
B2: CYPDN17: cytochrome P450 homolog A0A2G4SQ34 from Rhizopus microsporus, codon-optimized (protein, listed as Rhizopus microsporus)
chain: MDHLIQVYNSSTQVLIPVLQKRSKASYITAAIALIIAQRLYSYFRVPKHLRGFPKLPYFGIAKSLLTRESPRERVKKYVLPIIDENDGFYISKIPFGWMLYIANPVAAKQLLLKSSGFPKNHGLLDNMGENLFVEFIGKDNVALSNGDTWKRQRKVMNPAFHHSLPIKTMSKVVFSLISAIEQANGTIPVASAMQNFTLDTLGLAIFGFDFKALQGDPDEWTKTYRFVSDCIFDPVINVFSSYSFIIDRIYPRRRRGAIATKKLSEKFLKIAQQKRKEIKSGAYADVPDNEKDLLTLMLEAEEKGDTWTSEDELRHNIAILFVAGHDTTAHALSFCFYHLAKNKDVQQKLRKEVLSILGDKPVDVVPTVEQLKNMQYLNMVIKENLRINSPADMLFSRDVKEDTILANTLIPKGTVVTINIEALHYNPRLWHNPDQFDPERFAPGGEHEKHEGMTWLPFSNGTRQCLGMNFSLFEQRLVIAMILKKYEISIPEDSIHRDHIVSDIPFNGAPKSLKLTFTKRH
B3: CYPDN9: cytochrome P450 homolog A0A1X2HQ99 from Syncephalastrum racemosum, codon-optimized (protein, listed as Syncephalastrum racemosum)
chain: MFRPPAGLPKLPIINYFRLLWALYRKESPTRRSQRLILPALQKHNAKAYLAKVPYTWTVYLVDPVAVKTFLMRNGTFPKTMESIDAFDQSHPNVQFWGRENLGFSVGDSWKRQRKIIFPAFRRAMPVQLFGELVPKMFDLIDKEHSTIAIDLMQRFTLDALGLAAFSFDFHALDNHNNEWEVAYEMIRKELVSPLTNMLARYDYILKYIIPGRAEKQAAVSKINHLLSDIANERRKMIKRNPDMLKVPDSEKDLLTLMLESDLENSDDPASEELIRANLATFFLAGHDTTANTLSFWLYHLAMYKDIQKKAREEVIETMGGAPEDIVPTAEQLKKMKYMDCIIKENLRFMGPALELFPRIAKEDYNLNGIFIPKGTRVSVDLHTLHHHPDVWKEPERFDPLRFVENGEHSKHEGLSWIAFSSGARVCIGQNFSLVEQRVVMSMLLRRYEWDIPEDSIHREGLQLKDTNNQAPRSLEIVFKKRY
modifications: codon-optimized
B4: CYPDN10: cytochrome P450 homolog A0A0B7NB52 from Parasitella parasitica, codon-optimized (protein, listed as Parasitella parasitica)
chain: MAIENFMQSYNRAIENVLPILRKRSKASYIGMAIMCIVIKQVYSAYSVPKHLQRFPKVSFLSMIRSYLIKEAVVERTKRLVTPLTDAGHGFYVCKIPLTWTVFVTDPIAAKTLLLKTEFFPKSHAFFDALGDNSPAVQFLGRENVAASNGEIWKKQRKFMNPAFLRSSPVKTFSSVTHNLIKVIETQSDAVPIANCMKAFTIDALGLSAFGFDFQSLNGDPEGWTETYNIAIAGLFDPFINIFVKVDFMMNYISSKRKRINKAITRFNSMLEDLANKRRQEILNGETLGVPENEKDLLTLMIEADIREGSRTTSTELRHNIALFFLAGHDTTAHTLAFCLYNLAKNKHVQAKARAEVLDILGDEPKDVDPTMEDLKRMDYLNMVIKENLRRCGPVDKLLSRDTAEDIDLNGTLIPKGQKISIDFNSIHMNPKLWHNPEEFVPERFEPGGEFDQHTGFTWLPFSHGSRQCIGMNFSLTEQKVLLSMICKRAIEEI
B5: CYPDN11: cytochrome P450 homolog A0A068SB73 from Lichtheimia corymbifera, codon-optimized (protein, listed as Lichtheimia corymbifera)
chain: MAVASPQIKNMVTMDRLQDIYSTVSQHVVAHASAVTSRQRKISISAAVALVAFYTVYKVVTPPANLRHIPSMGFFSYLNAFLRGKQLHDISKNVVLPHAVNVDNGVYLRFDILGWTVHIARPEAAKRFLLKSDIFPKADMISERGNTLFGKFVFNRNIVMLNGDDWKAQRKVANPAFHRAMPVELFGRLTQKTLKKMEEEMDGGTLNFHDITERYTLEVIGLAGFEFEFGAIENPKSEWVDRYQRLIEATFNPWFIAFPNLDMRYRFLFPSRKRLHREMDAFLDKMSQVITHKRELLNHQKTTVPESERDILTLMIEAEKNGEGSMTNEELQNNLLVFFIAGHDTTSLALSYAAYYLAVNPDVQRKAREEAIRVLGDAPEDVMPTVEQTRQLTYINMVIKETLRMSPPLATIPVREASEDTELCGTFIPKGTRTFLDIYEIQHNPTVWKDPETFKPERFKPGGEAEELAGSGMSWLPFSNGSRQCIGLNFSLVEQRVFLPMLLRKYEWHLPEDSIHKERIQTMGLAVIKPKDLKLTFKKRY
B6: CYPDN12: cytochrome P450 homolog A0A1C7N669 from Choanephora cucurbitarum, codon-optimized (protein, listed as Choanephora cucurbitarum)
chain: MFTETALQIYHQMAEKVLPILKRQPKSSYIGAALVFLLVAEIRRQLSVPKHLKKFPTIGVFTLMKSFMRNDSVIERHNRLVAPIVKQGHKFYAAKIPFDWSLSIVDPEIAKIMLMKSDAFPKSQGFTRKLGDSSLIVRFTGRDNVSISNGHVWKRQRKFMNPAFRRSTPIKTFGELTLKFFDCVDEQPQDFPAAIKLKNYTLDALGIAAFDFDFKSLSGDPEGWTEIYNVIMKGMFDPWVFLFGKMEFILQYIIPSKRECIKSVVKFNKMLVEMADKRRQEIQNGKKLNTPNSEKDLLTLMIEAEMEEGIMTTNEELRENIALFFLAGQDSTGNSLSFCLYHLAKNKHVQDKLRREIMSVMGDRDLDAIPTVEDFKDMPYLNMVIKENLRLSGPADRFLDRVVAEDIVLGGELIPKGTLITVDVASIHYNPEYWHDPEVFIPERFEPNGEFDQHAGVAWLPFSNGARQCIGMNFSLAEQRVFLTMLLRRYEVGISKDSIHYDSIVYEQSFTFAPSSLTLNFTKLN
B7: CYPDN13: cytochrome P450 homolog A0A1X2HZE4 from Absidia repens, codon-optimized (protein, listed as Absidia repens)
chain: MGTSYKRKAAYVTIGAAVVLLFRSIYGFYYVPKSLRHLPCVGYRELAYSIMKREDAATRARSVLGQAIKEKNGAFVAKFPMEWTVFLTSPRTIQAVLLKSDKFPKTYDMFHALGESSPFVKFLGIKNVGFSNGDDWKRQRKVMNPAFQRSVPVEMFGKLMQKGILAIEKQGYEVRALDFFERITLDSIGIFLFSFDFGSLDNPNSVWSLTYDTIRRGIKNPALTVFPQLDCLLKYVTPGRRHLDQCVTKLNNLLMEVAKEKRRQVQSPSDKLIPDSEKDLLTLILEAELRGDGSASDEELRGNLALFFLAGHETTASAMCFCLYNLAMNKDIQEKARKEVLEVLGDEPVDVRPDIQDLKQFRYMDMILHENLRRFGPAAMLLPRKSEEDFVADGILIPKNTPVVIDLNTMHHNPQVWKDPEIFDPERFAPGGEYEANGEKMAWLPFSSGSRVCIGKSFSMAEQRVFLSMLLKKYEWDFPDDSIHRDGIKMENFENNAPESLSFRFHPRY
B8: CYPDN14: cytochrome P450 homolog A0A168T1R5 from Absidia glauca, codon-optimized (protein, listed as Absidia glauca)
chain: MPIVNALQTYSYEEPINFLKDVWLNRLFPAGTSNRKKAALLTLGATIALVCRTVYRLYRVPRSLRHIPAVGYVAMLRSILKREDATTRAMTIFQPAMKKGNGVFLVNFPLEWSIYVAEPLAAKAVLMKSDNFPKSIDFIHALGKENPVVKFFGTDNVALVNGEQWKRQRKVMNPAFHRAMPVQMFGRLLQKGFKNIEEQGHQVAALDFFQRLTLDALGHAVFGFDFGALNDREAVWTVTYESIRLNLRNPLAFAFPSMDWLLKYVIPGRLQMAASVDKLNGLMMDMIKEKRIKLLESQAQDDTPENEKDLLTLMLEAEQRGEGTTNDEELRSNMAVFFLAGHETTANTMSFCLYNLAMDKSVQEKARQEVIKVLGDEPEDVLPRNEELRQIPYLDMILKENLRRFGPASMLNARKTVEDFDMNGTFIPKNTSVIVETNALHHNPEVWKNPEQFDPERFAPGGEHETSHEGMAWLPFSSGSRGCLGMNFSMAEQRVFLAMLLRKYEWDLPKDSIHKNGIQIGNFQNACPDSLKIQFTPRY
B9: CYPDN16: cytochrome P450 homolog A0A1X2HFU1 from Syncephalastrum racemosum, codon-optimized (protein, listed as Syncephalastrum racemosum)
chain: MTQLTTPDTLGKLLAIYRQTPASRRASWIGWAVAATVIASQLYKTLVPPSNLPNLPTINYFRLLSSFLRRDSPTIRSQEILIPALEKHEQKKAYLAKLPLTWTVFLVDPIAAKIFLMKMDIFPKIKETIDALDSQHPIVEFFGRENVAISVGEAWRNQRKVMNPAFRRAMPISIFGNLMFKVFKNIEENKPVIAIDLMQAFTLDALGRAAFSFDFHALDDQHSIWVETYEIIRQSLRNPANAVLARYNFITKYLMPGRAKQKAATHKLNSLLLEMASRKRAELEKHPELRELPDSEKDLLTLMVEADMESGDDPTSAELLRANLSVFFLAGHDTTANTLSFWLYHMAVNKDVQAKAREEVIKILGDGPEDVMPTADQCKQMTYLDCIIKENLRLLGPASQLIPRMATEDVDLNGIFIPKGTRVTVDMHTMHYSPMLWKDPGVFKPDRFLDEGEHSQHRGLAWLPFSSGGRQCLGMNFSLTEQRVVMSMMLRKYTWELPADSIHRDGVKLNEVNTVAPRTLSIIFQQRYH

The molecules below were run on thebaine (assay: Demethylation of thebaine by new cytochrome P450 fungal and plant homologs co-expressed with CPRs in S. cerevisiae). Conditions: 0.5 mM thebaine, SC or DELFT media pH 7, 72 h.

Molecule	O-demethylation activity compared to the positive control Ps_CODM_co	O-demethylation activity, converting thebaine to oripavine	nororipavine production in the presence of thebaine
B1	substantially higher	display 0-demethylation activity	detected
B2	substantially higher	display 0-demethylation activity	detected

Same assay, conditions: 0.5 mM thebaine, SC or DELFT media pH 7, 72 h, 30° C.; co-expressed with Cel_CPR_co, Tp_CPR_5866, Tp_CPR_DN10898 or POR1

Molecule	Northebaine production
B1	+
B2	+
B3	−
B4	+
B5	+
B6	+
B7	+
B8	+
B9	+
